Assay results as given in patent US20200173960A1.

Assays:
bevacizumab [1] = test: Bevacizumab PK ELISA (anti-idiotype capture) of bevacizumab 0.5 ug/mL pre-bound with ADA; bevacizumab:ADA 10:1
bevacizumab [2] = test: Bevacizumab PK ELISA (anti-idiotype capture) of bevacizumab 0.5 ug/mL pre-bound with ADA; bevacizumab:ADA 1:5
bevacizumab [3] = test: Bevacizumab PK ELISA (anti-idiotype capture) of bevacizumab 0.5 ug/mL pre-bound with ADA; bevacizumab:ADA 5:1
bevacizumab [4] = test: Bevacizumab PK ELISA (anti-idiotype capture) of bevacizumab 0.5 ug/mL pre-bound with ADA; bevacizumab:ADA 1:1
bevacizumab [5] = test: Bevacizumab PK ELISA (anti-idiotype capture) of bevacizumab 50 ug/mL pre-bound with ADA; bevacizumab:ADA 5:1
bevacizumab [6] = test: Bevacizumab PK ELISA (anti-idiotype capture) of bevacizumab 50 ug/mL pre-bound with ADA; bevacizumab:ADA 1:1
bevacizumab [7] = test: Bevacizumab PK ELISA (anti-idiotype capture) of bevacizumab 50 ug/mL pre-bound with ADA; bevacizumab:ADA 10:1
bevacizumab [8] = test: Bevacizumab PK ELISA (anti-idiotype capture) of bevacizumab 50 ug/mL pre-bound with ADA; bevacizumab:ADA 100:1
bevacizumab [9] = test: Bevacizumab PK ELISA (anti-idiotype capture) of bevacizumab 0.5 ug/mL pre-bound with ADA; bevacizumab:ADA 1:50
bevacizumab [10] = test: cell-based or functional assay
bevacizumab [11] = test: Bevacizumab PK ELISA (anti-idiotype capture) of bevacizumab 0.5 ug/mL pre-bound with ADA; bevacizumab:ADA 1:100
bevacizumab [12] = test: Bevacizumab PK ELISA (anti-idiotype capture) of bevacizumab 0.5 ug/mL pre-bound with ADA; bevacizumab:ADA 1:2
bevacizumab [13] = test: Bevacizumab PK ELISA (anti-idiotype capture) of bevacizumab 0.5 ug/mL pre-bound with ADA; bevacizumab:ADA 1:10
bevacizumab [14] = test: method not stated; affinity listed for the purchased ADA

| Substance | Accuracy (%) ELISA (bevacizumab [1]) | Accuracy (%) ELISA (bevacizumab [2]) | Accuracy (%) ELISA (bevacizumab [3]) | Accuracy (%) ELISA (bevacizumab [4]) | Accuracy (%) ELISA (bevacizumab [5]) | Accuracy (%) ELISA (bevacizumab [6]) | Accuracy (%) ELISA (bevacizumab [7]) | Accuracy (%) ELISA (bevacizumab [8]) | Accuracy (%) ELISA (bevacizumab [9]) | Accuracy (%) nSMOL; bevacizumab 0.5 ug/mL; bevacizumab:ADA 1:1 (bevacizumab [10]) | Accuracy (%) nSMOL; bevacizumab 0.5 ug/mL; bevacizumab:ADA 1:2 (bevacizumab [10]) | Accuracy (%) nSMOL; bevacizumab 0.5 ug/mL; bevacizumab:ADA 1:5 (bevacizumab [10]) | Accuracy (%) nSMOL; bevacizumab 0.5 ug/mL; bevacizumab:ADA 1:10 (bevacizumab [10]) | Accuracy (%) nSMOL; bevacizumab 0.5 ug/mL; bevacizumab:ADA 1:50 (bevacizumab [10]) | Accuracy (%) nSMOL; bevacizumab 0.5 ug/mL; bevacizumab:ADA 1:100 (bevacizumab [10]) | Accuracy (%) nSMOL; bevacizumab 0.5 ug/mL; bevacizumab:ADA 5:1 (bevacizumab [10]) | Accuracy (%) nSMOL; bevacizumab 0.5 ug/mL; bevacizumab:ADA 10:1 (bevacizumab [10]) | Accuracy (%) nSMOL; bevacizumab 50 ug/mL; bevacizumab:ADA 1:1 (bevacizumab [10]) | Accuracy (%) nSMOL; bevacizumab 50 ug/mL; bevacizumab:ADA 5:1 (bevacizumab [10]) | Accuracy (%) nSMOL; bevacizumab 50 ug/mL; bevacizumab:ADA 10:1 (bevacizumab [10]) | also measured |
| --- | --- | --- | --- | --- | --- | --- | --- | --- | --- | --- | --- | --- | --- | --- | --- | --- | --- | --- | --- | --- | --- |
| MAB11128 (clone2C8) (antibody) | 44.2% | 2.3% | 14.2% | 6.9% | 65.5% | 5.72% | 68.5% | 102% | 0.1% | 98.2% | 110% | 111% | 110% | 110% | 104% | 98% | 91.3% | 102% | 97.3% | 100% | Accuracy (%) nSMOL; bevacizumab 50 ug/mL; bevacizumab:ADA 100:1 (bevacizumab [10]): 101%; Accuracy (%) nSMOL; bevacizumab first immobilized on Protein A; bevacizumab:ADA 1:1 (bevacizumab [10]): 106%; Accuracy (%) nSMOL; bevacizumab first immobilized on Protein A; bevacizumab:ADA 5:1 (bevacizumab [10]): 106%; Accuracy (%) nSMOL; bevacizumab first immobilized on Protein A; bevacizumab:ADA 10:1 (bevacizumab [10]): 104%; Accuracy (%) nSMOL; bevacizumab first immobilized on Protein A; bevacizumab:ADA 100:1 (bevacizumab [10]): 109%; Accuracy (%) ELISA (bevacizumab [11]): 0%; Accuracy (%) ELISA (bevacizumab [12]): 3.2%; Accuracy (%) ELISA (bevacizumab [13]): 2.4% |
| HCA185 (antibody) | 104% | 39.6% | 86.6% | 73.5% | 76.2% | 76.8% | 84.1% | 95.6% | 37.2% | 95.5% | 82.1% | 54.8% | 22.8% | 22.9% | 23.1% | 105% | 107% | 75.7% | 90.3% | 95.8% | Accuracy (%) nSMOL; bevacizumab 50 ug/mL; bevacizumab:ADA 100:1 (bevacizumab [10]): 100%; Accuracy (%) nSMOL; bevacizumab first immobilized on Protein A; bevacizumab:ADA 1:1 (bevacizumab [10]): 58.9%; Accuracy (%) nSMOL; bevacizumab first immobilized on Protein A; bevacizumab:ADA 5:1 (bevacizumab [10]): 90%; Accuracy (%) nSMOL; bevacizumab first immobilized on Protein A; bevacizumab:ADA 10:1 (bevacizumab [10]): 106%; Accuracy (%) nSMOL; bevacizumab first immobilized on Protein A; bevacizumab:ADA 100:1 (bevacizumab [10]): 105%; inhibitory effect on quantification values (nSMOL), ratio 1:1 (bevacizumab [10]): 50%; Accuracy (%) ELISA (bevacizumab [11]): 35.2%; Kd (bevacizumab [14]): 0.4 nM; Accuracy (%) ELISA (bevacizumab [12]): 55.8%; Accuracy (%) ELISA (bevacizumab [13]): 38.9% |
